Broadly, the EC50 is the midpoint of the concentration-response curve. In general, Kd refers to the constant that tells how readily two partners part at equilibrium. By koff is commonly meant the rate constant with which the complex falls apart. A word on the kon: it is the rate constant with which the complex forms. The term EC50 (read off the curve) denotes the concentration that produces a half-maximal response. High values mean a less potent agent, low ones a more potent agent.

The values below come from US20230112794A1 (NATIONAL TAIWAN UNIVERSITY, published 2023).

The target in assay [1] is T1, recombinant human Hyper-IL-6 (HyIL-6), fusion of human sIL-6Rα and human IL-6 (human).
T1 construct: also called human IL-6Rα/IL-6 chimera; fusion protein of sIL-6Rα/IL-6
Kind of assay: indirect ELISA, EC50 on HyIL-6 against EC50 on IL-6. The procedure: (§1) FIG. 4 illustrates the binding characteristics of purified C14mab. (a) The microplates were coated with human IL-6 (20 ng/well), HyIL-6 (60 ng/well), and IL-6 Ra (40 ng/well). Serial dilutions of C14mab were added for 1 hr at room temperature. The binding ELISA data is graphed with OD₄₅₀ readings and their associated binding percentages vs. log antibody concentration. Data are compiled from three independent experiments. Values represent the mean±SEM. (b) Data were normalized to maximum signal for IL-6 and HyIL-6 individually. EC₅₀ values were obtained by nonlinear regression fitting to a variable slope, four-parameter dose-response model using the GraphPad Prism software (San Diego, Calif., USA). (c) The binding of mouse HyIL-6 (60 ng/well) with C14mab was measured by ELISA as described in (a). Values represent the mean±SEM from three independent experiments.

Assay [2] concerns the target T2, recombinant human IL-6 (human, UniProt P05231 30-212).
T2 construct: Bought protein (R&D systems); also called Interleukin-6
Kind of assay: indirect ELISA, IL-6 coated at 20 ng/well, four-parameter fit; coated IL-6. The procedure: as §1
(In general: An ELISA detects its analyte on a solid surface through an enzyme-linked reagent.)

The target of assay [3] is T2, recombinant human IL-6. Kind of assay: BLI (Octet), C14mab on anti-mouse Fc capture sensor, IL-6 1.56-25 nM, 1:1 global fit. The procedure:
(§2) FIG. 5 illustrates the binding kinetics of C14mab. Biolayer interferometry analysis of the binding of C14mab to IL-6 (a) and HyIL-6 (b) was carried out. […] Kinetic parameters were evaluated by using a 1:1 binding model with global fitting. The experimental curves of each concentration (solid line) are shown alongside the fitted curves (dashedline). One representative set of curves is shown from three independent experiments.
(§3) Octet is based on Bio-Layer Interferometry (BLI) for measuring protein-protein interactions. BLI analyzes the interference pattern of white light reflected from two surfaces: a layer of immobilized protein on the biosensor tip and an internal reference layer. The binding between C14mab immobilized on the biosensor tip surface using Biosensor AMC tips (ForteBio, Pall Corporation) and IL-6 (R&D systems) and HyIL-6 (R&D systems) in complex was measured. Interference patterns for the binding to or dissociating from the biosensor were measured in real time to generate a response profile on the Octet® System Octet 96 Red (ForteBio, Pall Corporation). Kinetic parameters were evaluated by using a 1:1 binding model with global fitting of three independent experiments with the Octet Red analysis software.

For assay [4], the target named is T3, mouse HyIL-6 (mouse IL-6/IL-6Rα complex, R&D systems) (mouse, UniProt P22272 20-357; P08505 25-211, limits assumed).
T3 construct: not shown: linker, if any, is not described for the bought mouse protein
T3 sequence (chain (part 1 of 2), looked up): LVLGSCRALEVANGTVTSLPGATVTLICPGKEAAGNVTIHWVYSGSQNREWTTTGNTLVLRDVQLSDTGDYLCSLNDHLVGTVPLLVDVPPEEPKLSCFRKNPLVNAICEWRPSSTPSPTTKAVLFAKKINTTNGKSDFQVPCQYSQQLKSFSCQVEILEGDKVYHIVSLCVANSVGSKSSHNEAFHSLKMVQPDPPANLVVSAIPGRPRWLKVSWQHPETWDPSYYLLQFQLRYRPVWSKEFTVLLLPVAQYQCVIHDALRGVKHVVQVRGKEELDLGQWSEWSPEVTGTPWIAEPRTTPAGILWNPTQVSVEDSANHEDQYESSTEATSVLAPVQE
T3 sequence (chain (part 2 of 2), looked up): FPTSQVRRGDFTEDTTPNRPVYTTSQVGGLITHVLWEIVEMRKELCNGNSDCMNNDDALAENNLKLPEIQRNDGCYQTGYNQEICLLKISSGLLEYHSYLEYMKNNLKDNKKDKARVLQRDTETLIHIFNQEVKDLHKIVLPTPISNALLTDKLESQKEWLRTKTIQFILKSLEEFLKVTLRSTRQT
Kind of assay: ELISA, coated mouse HyIL-6 (60 ng/well), serial dilution of purified C14mab [c]. The procedure:
as §1

For assay [5], the target named is T1, recombinant human Hyper-IL-6 (HyIL-6), …. Description: BLI (Octet), C14mab on anti-mouse Fc capture sensor, HyIL-6 1.56-25 nM, 1:1 global fit. The procedure:
as §2, §3
(Biolayer interferometry detects binding as a change in optical thickness at a sensor tip.)

For assay [6], the target named is T4, IL-6Rα (soluble IL-6 receptor alpha, R&D systems) (human, UniProt P08887 20-358).
T4 construct: also called IL-6 Ra; sIL-6Rα
T4 sequence (looked up): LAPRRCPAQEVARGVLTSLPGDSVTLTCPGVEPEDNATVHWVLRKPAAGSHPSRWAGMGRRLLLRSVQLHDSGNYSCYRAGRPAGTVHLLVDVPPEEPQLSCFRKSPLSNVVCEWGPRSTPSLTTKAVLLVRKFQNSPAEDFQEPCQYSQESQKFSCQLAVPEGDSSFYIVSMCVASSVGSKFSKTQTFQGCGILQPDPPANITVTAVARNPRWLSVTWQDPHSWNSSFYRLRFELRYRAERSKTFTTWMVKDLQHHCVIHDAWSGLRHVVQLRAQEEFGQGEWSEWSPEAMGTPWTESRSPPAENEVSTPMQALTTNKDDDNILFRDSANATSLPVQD
Description: ELISA, coated IL-6Rα (40 ng/well), serial dilution of purified C14mab [a]. The procedure: as §1

Assay [7] addresses T1, recombinant human Hyper-IL-6 (HyIL-6), …. Kind of assay: BLI (Octet), KD on HyIL-6 against KD on IL-6. On the procedure: as §2, §3
The target is the same in assay [8]. Description: indirect ELISA, HyIL-6 coated at 60 ng/well, four-parameter fit; coated human HyIL-6. On the procedure: as §1
Assay [9] deals with T5, IL-6/IL-6Rα complex (IL-6 bound to sIL-6Rα, not fused) (human, UniProt P08887 20-358; P05231 30-212).
T5 construct: Non-covalent complex; also called IL-6/sIL-6Rα combination; IL-6/sIL-6R combination
Description: ELISA, coated sIL-6Rα (50 ng/well), IL-6 (10 ng/well) added, C14mab added without washing off unbound IL-6 [b]. On the procedure: FIG. 8 illustrates the epitope of HyIL-6/C14mab interaction. (a) Differential HDX of HyIL-6 upon C14mab binding. […] (b) A scheme depicts the assay procedure (left panel). The microplates were coated with sIL-6 Rα (50 ng/well) in PBS buffer at 4° C. overnight and blocked with 1% BSA in PBS for 1 hr. Then plates were washed with PBS containing 0.05% Tween-20. Upper; without washing group, IL-6 (10 ng/well) was added for 1 hr at room temperature. Then serial dilution concentrations of C14mab were added directly for another 2 hrs. Lower; washing group, IL-6 (10 ng/well) was added for 1 hr at room temperature. After plates were washed with PBS containing 0.05% Tween-20, serial dilution concentrations of C14mab were added directly for another 1 hr. The bound C14mab was determined by ELISA. The binding results with or without washing before C14mab incubation are shown in blue and red, respectively (right panel). One representative assay of 3 is shown.
To further understand the C14mab binding mechanism in HyIL-6, we performed an indirect ELISA assay using C14mab as a detection antibody. Briefly, IL-6Rα was immobilized directly on the plate and then IL-6 was added to the IL-6Rα and allowed to bind. The unbound IL-6 was washed away and the IL-6/IL-6Rα complex was detected by C14mab (FIG. 8(b)).

B1: C14 monoclonal antibody (C14mab) (antibody, IgG1, V domains shown)
VH: EVNLEESGGGLVQPGGSMQLSCAASGFTFSDAWMDWVRQSPEKGLEWVAEVRTKGYYPVTFYAESVKGRFTISRDDSKSSVYLQMNSLRAEDTGIYYCTRPHYGYGYFDVWGAGTTVTVSS
VL: not shown
notes: Early experiments used the C14 hybridoma culture supernatant; also called C14 clone
As for B1, the “fold stronger EC50 than for IL-6” value in [1] was around 3.5 times. For the same molecule, the EC50 worked out at 0.0153 µg/mL in assay [2] and 0.0043 µg/mL in [8]. The Kd came out at 1.13 nM in assay [3] and 0.286 nM in assay [5]. Further, the koff amounted to 0.000665 s⁻¹ in [3] and 0.000144 s⁻¹ in assay [5]. Also, the on-rate (kon) in assay [3] amounted to 605000 M⁻¹ s⁻¹; in assay [5] it was 498000 M⁻¹ s⁻¹. The binding result in [4] and in assay [6] was “no binding (tested: 10 µg/ml)” throughout. Besides, in [7], the “fold binding strength against IL-6” value was around 4 times. Besides, the “EC50 (read off the curve)” value in assay [9] is around 0.6 µg/mL.
